Results taken from publication PMC4633281.

Experiments:
[1] = target: reconstituted TAM (TamA loop-His6 with purified TamB) in a supported membrane (E. coli) (UniProt P0ADE4); experiment: magnetic contrast neutron reflectometry
[2] = target: TamA with loop-His6 sequence (E. coli) (UniProt P0ADE4); experiment: magnetic contrast neutron reflectometry
[3] = target: TamA with loop-His6 sequence (E. coli) (UniProt P0ADE4); experiment: quartz crystal microbalance with dissipation

Substance: Ag43, urea-denatured, purified (from UniProt P39180 53-1039) (natural protein)
- volume fraction of Ag43 in the membrane layer [1]: 11%
- surface excess of Ag43, fold over that with the complete TAM [2]: 3 fold
- volume fraction of Ag43 in the membrane layer [2]: 45%

Substance: TamB, soluble, purified from the periplasm (domain or fragment)
- decrease in frequency (QCM-D) [3]: 95 Hz
- frequency response (QCM-D) [3]: 30 Hz
